A value given as a limit tells only on which side of the number the result lay.

For the assay, the target named is T1, Rpb1, largest subunit of RNA polymerase II (S. cerevisiae, UniProt P04050 1-1733).
T1 construct: Rpb1, largest subunit of RNA polymerase II, S. cerevisiae; detected and immunoprecipitated with antibody 8WG16; Stands in the cell as part of the 12-subunit RNAP II; in the co-IP it is the bait (8WG16); also called RNAP II; core RNAP II (immunoprecipitated through Rpb1); source: endogenous, S. cerevisiae (BJ5465 derivatives); in living cells (cross-linking) and in solubilised chromatin fraction …
Nature of the assay: co-IP; chromatin fraction of log phase yeast cells solubilised by sonication in 50 mM HEPES pH 7.5, 140 mM NaCl, 1% Triton X-100, 0.1% sodium deoxycholate, 1 mM EDTA, 0.1% SDS; immunoprecipitated with 4 μg anti-Rpb1 8WG16; blots with 8WG16, 2Y14 and anti-Myc; cells expressing full-length, KOW4-deleted or KOW4-5-deleted Spt5. The settings on record: partners not purified.

T1 sequence (P04050 whole entry): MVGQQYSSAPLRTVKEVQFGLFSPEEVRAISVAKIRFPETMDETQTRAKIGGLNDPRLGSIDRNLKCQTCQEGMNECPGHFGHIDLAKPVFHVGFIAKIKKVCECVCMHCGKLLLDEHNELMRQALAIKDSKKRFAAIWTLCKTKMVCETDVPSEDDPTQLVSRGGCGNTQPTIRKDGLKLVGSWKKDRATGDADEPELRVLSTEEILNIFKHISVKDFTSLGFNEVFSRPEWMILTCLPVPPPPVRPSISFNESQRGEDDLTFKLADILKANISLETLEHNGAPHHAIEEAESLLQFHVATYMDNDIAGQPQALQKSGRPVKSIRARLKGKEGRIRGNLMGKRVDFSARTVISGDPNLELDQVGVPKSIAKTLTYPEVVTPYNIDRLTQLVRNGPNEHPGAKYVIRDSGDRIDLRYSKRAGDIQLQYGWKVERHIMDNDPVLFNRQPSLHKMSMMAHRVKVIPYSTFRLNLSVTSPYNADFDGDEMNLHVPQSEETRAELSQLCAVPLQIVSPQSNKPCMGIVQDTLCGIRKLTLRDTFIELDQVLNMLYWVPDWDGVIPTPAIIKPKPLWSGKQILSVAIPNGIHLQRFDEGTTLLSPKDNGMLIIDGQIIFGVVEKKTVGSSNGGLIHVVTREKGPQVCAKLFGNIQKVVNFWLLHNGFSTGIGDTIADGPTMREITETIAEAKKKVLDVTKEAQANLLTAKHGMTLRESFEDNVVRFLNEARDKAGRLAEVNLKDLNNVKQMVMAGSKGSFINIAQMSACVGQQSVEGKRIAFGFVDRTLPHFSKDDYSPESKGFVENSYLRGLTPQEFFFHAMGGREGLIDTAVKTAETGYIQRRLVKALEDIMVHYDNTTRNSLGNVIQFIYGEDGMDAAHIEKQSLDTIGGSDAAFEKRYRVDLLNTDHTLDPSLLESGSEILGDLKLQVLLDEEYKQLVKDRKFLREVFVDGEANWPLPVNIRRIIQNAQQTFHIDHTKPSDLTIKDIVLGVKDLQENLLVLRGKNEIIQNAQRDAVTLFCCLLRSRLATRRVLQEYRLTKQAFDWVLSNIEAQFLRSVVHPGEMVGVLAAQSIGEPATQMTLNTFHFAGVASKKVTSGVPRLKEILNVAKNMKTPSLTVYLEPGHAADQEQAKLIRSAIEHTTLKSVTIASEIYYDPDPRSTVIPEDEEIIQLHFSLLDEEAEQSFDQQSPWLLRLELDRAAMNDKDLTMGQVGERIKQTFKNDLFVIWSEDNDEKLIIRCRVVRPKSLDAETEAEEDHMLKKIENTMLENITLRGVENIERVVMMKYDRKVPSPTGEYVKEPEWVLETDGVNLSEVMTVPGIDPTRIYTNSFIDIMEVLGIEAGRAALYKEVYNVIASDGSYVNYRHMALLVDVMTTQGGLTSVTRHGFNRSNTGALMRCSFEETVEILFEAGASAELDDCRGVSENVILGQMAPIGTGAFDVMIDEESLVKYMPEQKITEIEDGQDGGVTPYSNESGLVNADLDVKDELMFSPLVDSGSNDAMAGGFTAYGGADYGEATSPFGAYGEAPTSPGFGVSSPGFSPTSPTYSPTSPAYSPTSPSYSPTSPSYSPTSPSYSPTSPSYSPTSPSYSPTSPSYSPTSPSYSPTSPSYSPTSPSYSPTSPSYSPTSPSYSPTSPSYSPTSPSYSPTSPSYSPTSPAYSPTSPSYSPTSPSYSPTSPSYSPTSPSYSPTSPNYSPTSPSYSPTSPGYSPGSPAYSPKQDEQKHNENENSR

B1: Rpb4 (endogenous) (natural protein, S. cerevisiae, UniProt P20433 1-221, looked up)
chain: MNVSTSTFQTRRRRLKKVEEEENAATLQLGQEFQLKQINHQGEEEELIALNLSEARLVIKEALVERRRAFKRSQKKHKKKHLKHENANDETTAVEDEDDDLDEDDVNADDDDFMHSETREKELESIDVLLEQTTGGNNKDLKNTMQYLTNFSRFRDQETVGAVIQLLKSTGLHPFEVAQLGSLACDTADEAKTLIPSLNNKISDDELERILKELSNLETLY
notes: Rpb4, subunit of RNA polymerase II, S. cerevisiae; detected with antibody 2Y14; source: endogenous, S. cerevisiae (BJ5465 derivatives), in solubilised chromatin fraction
Consider B1, for which the “fold reduction of co-immunoprecipitated Rpb4 in cells with KOW4-5-deleted Spt5 against cells with full-length Spt5” value was greater than 2 fold.

The values are drawn from PMC4066765, “Insights into how Spt5 functions in transcription elongation and repressing transcription coupled DNA repair” (Nucleic Acids Research, 2014).
